We go through 1 substance from publication PMC4823995.

The target in this assay is Mcm6-SuOn (budding yeast) (UniProt Q02724). Briefly: co-IP.

“Glc7 phosphatase (PP1) (from UniProt P32598 1-312) (enzyme)” registered a fold enrichment of Glc7 in the immunoprecipitate against Mcm6-ctrl of 2 fold.
